{"source": "paper PMC3795256", "biological_target": "recombinant human Prx4 (human) (UniProt Q13162)", "sequence (Q13162 38-271)": "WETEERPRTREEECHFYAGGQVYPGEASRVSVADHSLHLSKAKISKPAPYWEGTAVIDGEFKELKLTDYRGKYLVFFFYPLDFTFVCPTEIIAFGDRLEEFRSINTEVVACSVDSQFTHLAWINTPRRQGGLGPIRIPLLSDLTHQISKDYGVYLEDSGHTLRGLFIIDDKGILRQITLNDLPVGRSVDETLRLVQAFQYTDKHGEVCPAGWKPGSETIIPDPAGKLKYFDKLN", "test": "SPR; ProteOn XPR36; Ero1α (WT) or Prx4 amine-coupled to a GLC chip, PDI or ERp44 as analyte (0.444–36 μM); 25 °C; 20 mM HEPES-NaOH pH 7.4, 150 mM NaCl, 0.001% Tween, 2 mM EDTA; two-state model"}
{"substance": "recombinant human PDI, P07237 18-508 (natural protein; other documents disagree on this pair)", "values": [{"measurement": "Kd", "result": 10.6, "unit": "µM"}]}
